These results are taken from US20260209376A1 (University of California, published 2026).

For this experiment, the target named is TfR1 (antigen; form in the assay not stated) (human, UniProt P02786 89-760, limits assumed). Description: assay not named in the sentence (ELISA and flow cytometry per paragraph 218). (In general: An ELISA detects its analyte on a solid surface through an enzyme-linked reagent.)
Sequence of TfR1 (antigen; form in the assay not stated) (P02786 89-760 limits assumed): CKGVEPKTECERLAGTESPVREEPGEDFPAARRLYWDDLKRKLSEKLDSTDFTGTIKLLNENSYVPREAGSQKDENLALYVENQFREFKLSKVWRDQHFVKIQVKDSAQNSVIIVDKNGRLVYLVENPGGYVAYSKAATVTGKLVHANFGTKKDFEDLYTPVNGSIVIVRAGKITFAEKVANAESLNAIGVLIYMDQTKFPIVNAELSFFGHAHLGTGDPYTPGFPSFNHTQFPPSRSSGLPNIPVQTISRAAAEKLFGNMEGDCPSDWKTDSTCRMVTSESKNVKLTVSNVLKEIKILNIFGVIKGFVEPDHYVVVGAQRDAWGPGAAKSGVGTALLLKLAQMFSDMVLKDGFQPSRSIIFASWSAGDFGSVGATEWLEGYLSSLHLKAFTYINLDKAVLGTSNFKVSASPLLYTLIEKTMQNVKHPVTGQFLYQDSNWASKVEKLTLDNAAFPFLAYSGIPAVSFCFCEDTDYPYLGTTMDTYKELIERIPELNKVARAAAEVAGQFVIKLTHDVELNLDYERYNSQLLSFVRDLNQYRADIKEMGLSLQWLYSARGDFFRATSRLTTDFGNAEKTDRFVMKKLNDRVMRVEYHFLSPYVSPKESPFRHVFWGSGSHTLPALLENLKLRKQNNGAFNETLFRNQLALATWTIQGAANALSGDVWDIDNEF

B1: H8L1 (antibody, human IgG1, V domains shown)
VH: QVQLVESGGGVVQPGRSLRLSCAASGYSFTGYTMNWVRQAPGNGLEWVARINPHNGGTDYNQKFKDRFTISRDNSKNTLYLQMNSLRAEDTAVYYCARGYYYYSLDYWGQGTTVTVSS
VL: EIVLTQSPATLSLSPGERATLSCSASSSIRYIHWYQQKPGQAPRLLIYDTSNLASGTPARFSGSGSGTDFTLTISSLEPEDFAVYYCHQRNSYPWTFGQGTKVEIK
notes: humanized; also called hu128.1
B1: the binding result is given as “no binding”.

B2: H8L2 (antibody, human IgG1, V domains shown)
VH: QVQLVESGGGVVQPGRSLRLSCAASGYSFTGYTMNWVRQAPGNGLEWVARINPHNGGTDYNQKFKDRFTISRDNSKNTLYLQMNSLRAEDTAVYYCARGYYYYSLDYWGQGTTVTVSS
VL: EIVLTQSPATLSVSPGERATLSCSASSSIRYIHWYQQRPGQAPRLLIYDTSNLASGTPARFSGSGSGTDFTLTISSLEPEDFAVYYCHQRNSYPWTFGQGTKVEIK
notes: as for B1
B2: the binding result is “no binding”.

B3: H8L3 (antibody, human IgG1, V domains shown)
VH: QVQLVESGGGVVQPGRSLRLSCAASGYSFTGYTMNWVRQAPGNGLEWVARINPHNGGTDYNQKFKDRFTISRDNSKNTLYLQMNSLRAEDTAVYYCARGYYYYSLDYWGQGTTVTVSS
VL: EIVLTQSPDFQSVTPKEKVTITCSASSSIRYIHWYQQRPDQSPKLLIYDTSNLASGVPSRFSGSGSGTDFTLTINSLEAEDAATYYCHQRNSYPWTFGQGTKVEIK
notes: as for B1
For B3, the binding result is “no binding”.

B4: H8L4 (antibody, human IgG1, V domains shown)
VH: QVQLVESGGGVVQPGRSLRLSCAASGYSFTGYTMNWVRQAPGNGLEWVARINPHNGGTDYNQKFKDRFTISRDNSKNTLYLQMNSLRAEDTAVYYCARGYYYYSLDYWGQGTTVTVSS
VL: EIVLTQSPATLSVSPGERATLSCSASSSIRYIHWYQQRPGQAPRLLIYDTSNLASGIPARFSGSGSGTDFTLTISSLEPEDFAVYYCHQRNSYPWTFGPGTKVDIK
notes: as for B1
Take B4: the binding result is “no binding”.
